These results are taken from patent US20060222645A1 (LEXICON PHARMACEUTICALS, published 2006).

Assay [1] deals with T1, His-SUMO-gs2 (mouse, UniProt Q9Z1P8 49-98).
T1 construct: Translated in vitro (RTS E. coli); also called gs-2 fragment of mANGPTL4
T1 chain: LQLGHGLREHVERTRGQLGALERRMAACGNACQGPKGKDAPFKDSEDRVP
Nature of the assay: Western blot of in vitro translated fragments. The method, then:
(§1) The in vitro translated protein fragments were separated on four SDS-PAGE gels, along with N-mANGPTL4, and transferred to four nitrocellulose blots. The blots were then blocked for 1 to 2 hours with TBS containing 5% nonfat dried milk (TBS-NFDM). After blocking, the blots were rinsed with TBS containing 0.5% Tween-20 (TBS-Tween) four times for five minutes each rinse. The blots were then incubated in TBS-NFDM containing tester antibody (14D12, 15F2, 90B4, or anti-His) overnight at 4° C. The blots were rinsed with TBS-Tween four times for five minutes each rinse and then incubated in TBS-NFDM containing a 1:6000 dilution of HRP-coupled goat anti-mouse antibody (Southern Biotechnology Associates) for 1 hour. The blots were rinsed with TBS-Tween four times for five minutes each rinse and then developed using SuperSignal West Pico Chemiluminescent Substrate (Pierce Biotechnology) as directed by the manufacturer. Alternatively, blots can be developed using the Western Breeze™ Immunodetection Kit (Invitrogen).
(§2) Antibody 14D12 bound only to N-mANGPTL4 in that experiment. […] That result may be due to the fact that 14D12 is a weaker binder than 15F2 and 90B4. See, e.g., Example S and FIG. 33. Antibody 15F2 bound His-SUMO-gs1. […] Antibody 90B4 bound to His-SUMO-gs2 and His-SUMO-gs4.
In general terms: Immunoblotting shows a protein as a band on a membrane.

The target in assay [2] is T2, His-SUMO-gs4 (mouse, UniProt Q9Z1P8 99-151).
T2 construct: Translated in vitro (RTS E. coli); also called gs4 fragment of mANGPTL4
T2 sequence: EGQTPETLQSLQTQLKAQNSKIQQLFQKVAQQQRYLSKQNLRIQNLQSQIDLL
Nature of the assay: Western blot of in vitro translated fragments. As for the experimental part:
as §1, §2

In assay [3] the target is T3, full-length human ANGPTL4 (human, UniProt Q9BY76 26-406).
T3 construct: also called hANGPTL4
T3 sequence: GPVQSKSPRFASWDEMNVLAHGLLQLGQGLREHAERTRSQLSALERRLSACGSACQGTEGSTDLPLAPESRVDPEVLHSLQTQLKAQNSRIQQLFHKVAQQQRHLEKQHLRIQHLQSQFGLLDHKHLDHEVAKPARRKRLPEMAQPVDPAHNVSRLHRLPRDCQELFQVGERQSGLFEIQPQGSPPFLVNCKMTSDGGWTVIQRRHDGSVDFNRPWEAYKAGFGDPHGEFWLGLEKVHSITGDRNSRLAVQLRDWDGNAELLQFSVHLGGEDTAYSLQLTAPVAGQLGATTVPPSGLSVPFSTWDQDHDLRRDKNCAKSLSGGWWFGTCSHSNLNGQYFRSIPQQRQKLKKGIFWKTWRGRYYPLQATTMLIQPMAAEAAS
The assay is described as follows: hybridoma screening ELISA, coated antigen 0.25 ug/ml. (An ELISA detects its analyte on a solid surface through an enzyme-linked reagent.)

The target of assay [4] is T4, N-mANGPTL4 (mouse).
T4 construct: E. coli construct; also called portion of the amino terminal domain of mouse ANGPTL4
T4 chain: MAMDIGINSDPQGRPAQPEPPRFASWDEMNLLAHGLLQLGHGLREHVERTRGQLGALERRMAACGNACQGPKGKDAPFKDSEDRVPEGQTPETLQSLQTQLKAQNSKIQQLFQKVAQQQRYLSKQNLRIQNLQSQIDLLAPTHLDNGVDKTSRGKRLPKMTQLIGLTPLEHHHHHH
Nature of the assay: ELISA, coated antigen 0.25 ug/ml, antibody 0 to 10 ug/ml. The method, then: (§3) Antibodies were screened for binding to mouse ANGPTL4 using ELISA. Ninety-six well Nunc Maxi-Sorp ImmunoPlates™ (Nunc #446612, Roskilde, Denmark) were coated by adding 50 μl per well of a 2.5 μg/ml solution of ANGPTL4 in coating buffer (BupH™ Carbonate-Bicarbonate Buffer, Pierce #28382, Rockford, Ill.) overnight at 4° C. Coating buffer was removed and the plate was blocked by adding 250 μl per well of blocking buffer (1% Blocker™ BSA, Pierce #37525, in PBS) for two hours at room temperature. 50 μl of hybridoma supernatant (undiluted or diluted in blocking buffer) or isolated anti-ANGPTL4 antibody (undiluted or diluted in blocking buffer) were added to the wells and incubated for at least one hour at room temperature. Wells were washed four times with PBS/Tween 20. 100 μl of diluted (1:5,000 to 1:10,000) HRP-conjugated goat anti-mouse IgG (Pierce #31446) were added to the wells and incubated for one hour at 37° C. Wells were washed six times with PBS/Tween 20. Anti-ANGPTL4 antibody was detected by adding 50 μl of TMB (tetramethyl benzidine) solution (ImmunoPure® TMB Substrate Kit, Pierce #34021) to the wells for 5 to 10 minutes. Plates were read spectrophotometrically at 450 nm using a microplate reader (Molecular Devices, Sunnyvale, Calif.).
(§4) The binding affinity of antibodies 90B4, 15F2, and 14D12 were determined for each of N-mANGPTL4 and N-hANGPTL4 by ELISA. N-hANGPTL4 was expressed and purified from bacteria as described above for N-mANGPTL4 in Example Q. A polynucleotide sequence encoding amino acids 24 to 175 of human ANGPTL4 was cloned into expression vector pET22b(+), which encodes an N-terminal pelB leader sequence and a C-terminal His tag. Following translation of the protein and removal of all but 11 amino acids of the pelB sequence, N-hANGPTL4 has the sequence shown in SEQ ID NO: 11. That sequence contains 11 amino acids from the pelB sequence, followed by amino acids 24 to 175 of human ANGPTL4 (underlined in Table 6), followed by a 2 amino acid linker and the His tag. ELISAs were performed as discussed above in Example K, except the plates were coated with 50 μl of 0.25 μg/ml of protein (N-mANGPTL4 or N-hANGPTL4) per well. Binding was measured at 0 μg/ml, 0.08 μg/ml, 0.4 μg/ml, 2 μg/ml, and 10 μg/ml antibody.

Assay [5] deals with T5, N-hANGPTL4 (human).
T5 construct: E. coli construct
T5 chain: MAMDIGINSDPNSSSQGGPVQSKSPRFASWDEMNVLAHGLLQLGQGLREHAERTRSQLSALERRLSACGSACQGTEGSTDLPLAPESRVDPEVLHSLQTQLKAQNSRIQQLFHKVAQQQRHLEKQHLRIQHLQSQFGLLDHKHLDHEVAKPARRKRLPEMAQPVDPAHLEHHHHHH
Described as above. As for the experimental part:
as §3, §4

Assay [6] deals with T6, His-SUMO-gs1 (mouse, UniProt Q6TMA8 24-73 (rat entry)).
T6 construct: Translated in vitro (RTS E. coli); also called gs-1 fragment of mANGPTL4
T6 chain: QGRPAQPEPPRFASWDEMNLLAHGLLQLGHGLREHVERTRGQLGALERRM
Nature of the assay: Western blot of in vitro translated fragments. As for the experimental part: as §1, §2

The target in assay [7] is T7, His-SUMO-gs3 (mouse, UniProt Q9Z1P8 74-123).
T7 construct: Translated in vitro (RTS E. coli); also called gs-3 fragment of mANGPTL4
T7 chain: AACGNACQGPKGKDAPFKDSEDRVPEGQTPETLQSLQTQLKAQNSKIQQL
The assay is described as follows: Western blot of in vitro translated fragments. As for the experimental part: as §1, §2

The target of assay [8] is T8, His-SUMO-gs5 (mouse, UniProt Q9Z1P8 124-180).
T8 construct: Translated in vitro (RTS E. coli); also called gs5 fragment of mANGPTL4
T8 sequence: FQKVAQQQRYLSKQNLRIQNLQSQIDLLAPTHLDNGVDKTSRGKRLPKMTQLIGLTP
The assay is described as follows: Western blot of in vitro translated fragments. The method, then: as §1, §2

Assay [9] deals with T9, bovine LPL (bovine, UniProt P11151 29-478).
T9 sequence (looked up): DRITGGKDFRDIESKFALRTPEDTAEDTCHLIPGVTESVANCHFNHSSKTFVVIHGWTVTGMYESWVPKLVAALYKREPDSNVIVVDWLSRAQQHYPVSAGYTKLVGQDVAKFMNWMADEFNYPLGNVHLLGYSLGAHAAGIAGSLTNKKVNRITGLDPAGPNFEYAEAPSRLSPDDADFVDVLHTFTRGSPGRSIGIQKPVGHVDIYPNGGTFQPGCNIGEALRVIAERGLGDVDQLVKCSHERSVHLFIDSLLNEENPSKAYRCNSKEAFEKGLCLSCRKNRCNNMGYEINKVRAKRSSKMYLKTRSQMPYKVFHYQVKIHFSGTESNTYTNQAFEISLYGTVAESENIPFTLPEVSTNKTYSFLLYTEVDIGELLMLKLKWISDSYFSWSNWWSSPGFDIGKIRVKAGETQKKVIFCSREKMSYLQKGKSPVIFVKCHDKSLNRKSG
Nature of the assay: cell-based or functional assay.

B1: monoclonal antibody 90B4 (antibody, V domains shown)
VH: EVQLQQSGPELMKPGASVKMSCRTSGYTFTDYSIHWVKQSHGKRLEWIGYINPYNGDTYCDQNFKGKATLTFNKASSTAYMEIPRLTSDDSAVYYCTRWKTIQAPFAYWGQGTLVTVSA
VL: EIQMTQSPSSMSASLGDRITITCQATQDIVKNLNWYQQKPGKPPSFLIHYATELAEGVPSRFSGSGSGSDYSLTISNLESEDFADYYCLQSYDFPYTFGGGTKLEIN
For B1, the binding result in assay [1], in assay [2], in assay [3], in assay [4] and in assay [5] was “binds” throughout.

B2: monoclonal antibody 15F2 (antibody, V domains shown)
VH: EVKLVESGGGLVKPGGSLKLSCAASGFAFSRYDMSWVRQTPEKRLEWVATISTDGSYTYYPDSVKGRFTISRDNARNTLYLQMGSLRSEDTALYFCVRHEQSTIVPHYPLDYWGQGTSVTVSS
VL: EIQMTQSPSSMSASLGDRITITCQATQDIVKNLNWYQQKPGKPPSFLIHYATELAEGVPSRFSGSGSGSDYSLTISNLESEDFADYYCLQSYDFPYTFGGGTKLEINR
With B2, the binding result in [6], in [4] and in assay [5] was “binds” in each case.

B3: monoclonal antibody 14D12 (antibody, V domains shown)
VH: EVKLVESGGGLVKPGGSLKLSCAASGFAFSRYDMSWVRQTPEKRLEWVATISTGGSYTYYPDSVKGRFTISRDNARNTLYLQMGSLRSEDTALYFCVRHEQSTVVPHYPLDYWGQGTSVTVSS
VL: DIVMTQSPATLSVTPGDRVSLSCRASQSIGDYLHWYQQKSHESPRLLIKYASQSISGIPSRFSGSGSGSDFTLSIDSVEPEDVGVYYCQNGHSFPFTFGSGTKLEIKR
Turning to B3, the binding result was “no binding” in [6]; “no binding” in [1]; “no binding” in [7]; “no binding” in [2]; “no binding” in assay [8]; “binds” in assay [4]. The binding result in assay [5] was “binds”.

B4: full-length mouse ANGPTL4 (ligand)
chain: QGRPAQPEPPRFASWDEMNLLAHGLLQLGHGLREHVERTRGQLGALERRMAACGNACQGPKGKDAPFKDSEDRVPEGQTPETLQSLQTQLKAQNSKIQQLFQKVAQQQRYLSKQNLRIQNLQSQIDLLAPTHLDNGVDKTSRGKKLSKMTQLIGLTSNATHLHRPARDCQELFQEGERHSGLFQIQPLGSPPFLVNCEMTSDGGWTVIQRRLNGSVDFNQSWEAYKDGFGDPQGEFWLGLEKMHSITGDRGSQLAVQLQDWDGNAKLLQFPIHLGGEDTAYSLQLTEPTANELGATNVSPNGLSLPFSTWDQDHDLRGDLNCAKSLSGGWWFGTCSHSNLNGQYFHSIPRQRQERKKGIFWKTWKGRYYPLQATTLLIQPMEATAAS
As for B4, in [9], the “IC50 (concentration required for 50% inhibition) of LPL activity, release of 3H-oleic acid” value is ~25 nM.
